Measured values as given in US20250312499A1, “KISSPEPTIN RECEPTOR (KISS1R) TARGETED THERAPEUTICS AND USES THEREOF” (priority 2024, published 2025).
Numbered stars: 1 amine (or outer) side, 2 acyl side, 3 side chain; on linkers, the order of the positions; unused ones are H or OH. Square brackets hold non-standard residues; d marks the D form. * marks the point of attachment. X2 = 4‑amino‑1‑((3-fluoro-4-methylbenzyl)glycyl)piperidine‑4‑carboxylic acid, Cc1ccc(CN(CC(=O)N2CCC(N[*:1])(C(=O)[*:2])CC2)[*:3])cc1F; X7 = 4‑amino‑1‑(N-methylcarbamimidoyl)piperidine‑4‑carboxylic acid, CNC(=N)N1CCC(N[*:1])(C(=O)[*:2])CC1; DOTA = O=C(O)CN1CCN(CC(=O)O)CCN(CC(=O)*)CCN(CC(=O)O)CC1; Phe(4-CN) = N#Cc1ccc(C[C@H](N)C(=O)O)cc1; Phe(3-F) = N[C@@H](Cc1cccc(F)c1)C(=O)O; 2Nal = N[C@@H](Cc1ccc2ccccc2c1)C(=O)O; 4Pal = N[C@@H](Cc1ccncc1)C(=O)O; NH‑glycol = not defined here; ABA = not defined here; APM = not defined here; Ahx = NCCCCCC(=O)O; azaGly = NNC(=O)O

B1: Compound 55 (peptide)
peptide: {DOTA-Ahx}-F[azaGly]L[X2]F-NH2
SMILES: Cc1ccc(CNCC(=O)N2CCC(NC(=O)[C@H](CC(C)C)NC(=O)NNC(=O)[C@H](Cc3ccccc3)NC(=O)CCCCCNC(=O)CN3CCN(CC(=O)O)CCN(CC(=O)O)CCN(CC(=O)O)CC3)(C(=O)N[C@@H](Cc3ccccc3)C(N)=O)CC2)cc1F
B2: Compound 36 (peptide)
peptide: {DOTA-Ahx}-[dY]ENT[Phe(3-F)][azaGly]L[X2]W-NH2
SMILES: Cc1ccc(CNCC(=O)N2CCC(NC(=O)[C@H](CC(C)C)NC(=O)NNC(=O)[C@H](Cc3cccc(F)c3)NC(=O)[C@@H](NC(=O)[C@H](CC(N)=O)NC(=O)[C@H](CCC(=O)O)NC(=O)[C@@H](Cc3ccc(O)cc3)NC(=O)CCCCCNC(=O)CN3CCN(CC(=O)O)CCN(CC(=O)O)CCN(CC(=O)O)CC3)[C@@H](C)O)(C(=O)N[C@@H](Cc3c[nH]c4ccccc34)C(N)=O)CC2)cc1F
B3: Compound 91 (peptide)
peptide: {DOTA-Ahx}-[dY][dW]NTF[azaGly]L[X7]W-NH2
SMILES: CNC(=N)N1CCC(NC(=O)[C@H](CC(C)C)NC(=O)NNC(=O)[C@H](Cc2ccccc2)NC(=O)[C@@H](NC(=O)[C@H](CC(N)=O)NC(=O)[C@@H](Cc2c[nH]c3ccccc23)NC(=O)[C@@H](Cc2ccc(O)cc2)NC(=O)CCCCCNC(=O)CN2CCN(CC(=O)O)CCN(CC(=O)O)CCN(CC(=O)O)CC2)[C@@H](C)O)(C(=O)N[C@@H](Cc2c[nH]c3ccccc23)C(N)=O)CC1
B4: Compound 104 (peptide)
peptide: {DOTA-Ahx}-[dY][dW]NTF[azaGly]L[X2][Phe(4-CN)]-NH2
SMILES: Cc1ccc(CNCC(=O)N2CCC(NC(=O)[C@H](CC(C)C)NC(=O)NNC(=O)[C@H](Cc3ccccc3)NC(=O)[C@@H](NC(=O)[C@H](CC(N)=O)NC(=O)[C@@H](Cc3c[nH]c4ccccc34)NC(=O)[C@@H](Cc3ccc(O)cc3)NC(=O)CCCCCNC(=O)CN3CCN(CC(=O)O)CCN(CC(=O)O)CCN(CC(=O)O)CC3)[C@@H](C)O)(C(=O)N[C@@H](Cc3ccc(C#N)cc3)C(N)=O)CC2)cc1F
B5: Compound 107 (peptide)
peptide: {DOTA-Ahx}-[dY][dH][dW]NTF[azaGly]L[X2][4Pal]-NH2
SMILES: Cc1ccc(CNCC(=O)N2CCC(NC(=O)[C@H](CC(C)C)NC(=O)NNC(=O)[C@H](Cc3ccccc3)NC(=O)[C@@H](NC(=O)[C@H](CC(N)=O)NC(=O)[C@@H](Cc3c[nH]c4ccccc34)NC(=O)[C@@H](Cc3c[nH]cn3)NC(=O)[C@@H](Cc3ccc(O)cc3)NC(=O)CCCCCNC(=O)CN3CCN(CC(=O)O)CCN(CC(=O)O)CCN(CC(=O)O)CC3)[C@@H](C)O)(C(=O)N[C@@H](Cc3ccncc3)C(N)=O)CC2)cc1F
B6: Compound 108 (peptide)
peptide: {DOTA-Ahx}-[dY][azaGly]NTF[azaGly]L[X2]W-NH2
SMILES: Cc1ccc(CNCC(=O)N2CCC(NC(=O)[C@H](CC(C)C)NC(=O)NNC(=O)[C@H](Cc3ccccc3)NC(=O)[C@@H](NC(=O)[C@H](CC(N)=O)NC(=O)NNC(=O)[C@@H](Cc3ccc(O)cc3)NC(=O)CCCCCNC(=O)CN3CCN(CC(=O)O)CCN(CC(=O)O)CCN(CC(=O)O)CC3)[C@@H](C)O)(C(=O)N[C@@H](Cc3c[nH]c4ccccc34)C(N)=O)CC2)cc1F
B7: Compound 106 (peptide)
peptide: {DOTA-Ahx}-[dY]N[dW]NTF[azaGly]L[X2][4Pal]-NH2
SMILES: Cc1ccc(CNCC(=O)N2CCC(NC(=O)[C@H](CC(C)C)NC(=O)NNC(=O)[C@H](Cc3ccccc3)NC(=O)[C@@H](NC(=O)[C@H](CC(N)=O)NC(=O)[C@@H](Cc3c[nH]c4ccccc34)NC(=O)[C@H](CC(N)=O)NC(=O)[C@@H](Cc3ccc(O)cc3)NC(=O)CCCCCNC(=O)CN3CCN(CC(=O)O)CCN(CC(=O)O)CCN(CC(=O)O)CC3)[C@@H](C)O)(C(=O)N[C@@H](Cc3ccncc3)C(N)=O)CC2)cc1F
B8: Compound 35 (peptide)
peptide: {DOTA-Ahx}-[dY]WNT[Phe(3-F)][azaGly]L[X2]W-NH2
SMILES: Cc1ccc(CNCC(=O)N2CCC(NC(=O)[C@H](CC(C)C)NC(=O)NNC(=O)[C@H](Cc3cccc(F)c3)NC(=O)[C@@H](NC(=O)[C@H](CC(N)=O)NC(=O)[C@H](Cc3c[nH]c4ccccc34)NC(=O)[C@@H](Cc3ccc(O)cc3)NC(=O)CCCCCNC(=O)CN3CCN(CC(=O)O)CCN(CC(=O)O)CCN(CC(=O)O)CC3)[C@@H](C)O)(C(=O)N[C@@H](Cc3c[nH]c4ccccc34)C(N)=O)CC2)cc1F
B9: Compound 105 (peptide)
peptide: {DOTA-Ahx}-[dY][dW]NTF[azaGly]L[X2][4Pal]-NH2
SMILES: Cc1ccc(CNCC(=O)N2CCC(NC(=O)[C@H](CC(C)C)NC(=O)NNC(=O)[C@H](Cc3ccccc3)NC(=O)[C@@H](NC(=O)[C@H](CC(N)=O)NC(=O)[C@@H](Cc3c[nH]c4ccccc34)NC(=O)[C@@H](Cc3ccc(O)cc3)NC(=O)CCCCCNC(=O)CN3CCN(CC(=O)O)CCN(CC(=O)O)CCN(CC(=O)O)CC3)[C@@H](C)O)(C(=O)N[C@@H](Cc3ccncc3)C(N)=O)CC2)cc1F
B10: Compound 2 (peptide)
peptide: {DOTA-Ahx}-F[azaGly]L[X2]W-NH2
SMILES: Cc1ccc(CNCC(=O)N2CCC(NC(=O)[C@H](CC(C)C)NC(=O)NNC(=O)[C@H](Cc3ccccc3)NC(=O)CCCCCNC(=O)CN3CCN(CC(=O)O)CCN(CC(=O)O)CCN(CC(=O)O)CC3)(C(=O)N[C@@H](Cc3c[nH]c4ccccc34)C(N)=O)CC2)cc1F

Target: human kisspeptin receptor (KISS1R) (human), Q969F8
Experiment: radioligand competition, hKISS1R membranes; legend: A is <10 nM

Sequence of human kisspeptin receptor (KISS1R) (human), Q969F8 (Q969F8 whole entry): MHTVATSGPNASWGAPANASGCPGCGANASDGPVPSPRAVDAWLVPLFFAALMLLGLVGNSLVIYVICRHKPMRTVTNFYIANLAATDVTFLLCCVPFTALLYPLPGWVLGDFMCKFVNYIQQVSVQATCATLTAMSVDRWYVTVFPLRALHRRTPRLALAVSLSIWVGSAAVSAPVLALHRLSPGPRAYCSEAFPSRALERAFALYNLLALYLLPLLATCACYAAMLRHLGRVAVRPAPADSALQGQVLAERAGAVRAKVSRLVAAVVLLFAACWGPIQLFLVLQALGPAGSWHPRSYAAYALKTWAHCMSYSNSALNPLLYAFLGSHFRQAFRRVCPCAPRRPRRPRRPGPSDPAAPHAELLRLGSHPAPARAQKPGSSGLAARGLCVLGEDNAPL

Ki, < 0.01 µM:
B1
B2
{DOTA-ABA}-F[azaGly]L[X2]W-NH2 (reading uncertain) [Compound 50]
B3
B4
{DOTA-NH‑glycol}-[dY][dW]NTF[azaGly]L[X2]W-NH2 (reading uncertain) [Compound 57]
B5
B6
{DOTA-NH‑glycol}-[dY][2Nal]NTF[azaGly]L[X2]W-NH2 (reading uncertain) [Compound 58]
{DOTA}-KF[azaGly]L[X2]W-NH2 [Compound 37]
B7
B8
{DOTA-APM}-[dY][dH][dW]NTF[azaGly]L[X2]W-NH2 (reading uncertain) [Compound 33]
B9
{DOTA-APM}-[dY][dW]NT[Phe(3-F)][azaGly]L[X2]W-NH2 (reading uncertain) [Compound 34]
B10
{HO‑PEG3‑C(:O)}-[dY]K(DOTA)NT[Phe(3-F)][azaGly]L[X2]W-NH2 [Compound 64]
